# Laboratory results taken from PMC6175910.
# B1: Usfork_T10 upstream fork promoter DNA (dsDNA)
# DNA 1: GCTTGACAAAAGTGTTAAATTGTGCTATACT
# DNA 2: AGCACAATTTAACACTTTTGTCAAGC
# Columns and labels:
# [1] = biological target: Msm RbpA/sigmaA RNAP holoenzyme, beta S447L (Mycobacterium smegmatis (strain MGM6029), UniProt A0QSL8;P60281;A0QS66;A0QWT1;A0QW02;A0QZ11 1-350;1-1169;1-1317;1-107;1-466;1-114, S447L); test: X-ray crystallography (3.45 A); Kang A soaked in; Footprinting: 10 mM Tris-HCl pH 8, 10 mM K-glutamate, 5 mM MgCl2, 0.1 mM DTT, 15 ug/mL BSA, 37 C, 400 nM RNAP; crystals: 0.1 M Bis-Tris pH 6.0, 0.2 M LiSO4, 16% PEG 3350, 2.5% ethylene glycol, 22 C; settings: protein: recombinant; tags: beta' C-terminal ppx-His10; chain copies: 2;1;1;1;1;1
# [2] = biological target: Msm RbpA/sigmaA RNAP holoenzyme (wild type) (Mycobacterium smegmatis (strain MGM6029), UniProt A0QSL8;P60281;A0QS66;A0QWT1;A0QW02;A0QZ11 1-350;1-1169;1-1317;1-107;1-466;1-114); test: X-ray crystallography (3.05 A); Rif soaked in; Footprinting: 10 mM Tris-HCl pH 8, 10 mM K-glutamate, 5 mM MgCl2, 0.1 mM DTT, 15 ug/mL BSA, 37 C, 400 nM RNAP; crystals: 0.1 M Bis-Tris pH 6.0, 0.2 M LiSO4, 16% PEG 3350, 2.5% ethylene glycol, 22 C; settings: protein: recombinant; tags: beta' C-terminal ppx-His10; chain copies: 2;1;1;1;1;1; 3' overhang 5 nt on strand 1 (upstream fork), other end blunt
binder,measurement,setting,value
B1,binding result,[1],binds
same,binding result,[2],binds
